According to publication PMC10359635, “Cas1–Cas2 physically and functionally interacts with DnaK to modulate CRISPR Adaptation”:

Assays:
[1] = biological target: T1, Cas1 (Escherichia coli, UniProt Q46896 1-305); test: EMSA; mixed with Cy5-ssDNA decoy; aggregates in wells at highest Cas1; EMSA: 20 nM Cy5 fork, 20 mM Tris pH 8.0, 0.1 mg/ml BSA, 7% glycerol (25% after DnaK addition); proteins diluted in 20 mM Tris pH 8.0, 100 mM NaCl, 1 mM DTT; Cas1 preincubated 5 min, then 25 min at 37 C; 5% native acrylamide gel; settings: protein: recombinant; tags: C-terminal Strep-tag II; chain copies: 2; label: 5'-Cy5 on MW14; fork: 24 bp duplex 1:2-25 2:27-50; 3' arm of strand 1 25 nt, 5' arm of strand 2 26 nt; 1 nt 5' overhang on strand 1
T1 sequence: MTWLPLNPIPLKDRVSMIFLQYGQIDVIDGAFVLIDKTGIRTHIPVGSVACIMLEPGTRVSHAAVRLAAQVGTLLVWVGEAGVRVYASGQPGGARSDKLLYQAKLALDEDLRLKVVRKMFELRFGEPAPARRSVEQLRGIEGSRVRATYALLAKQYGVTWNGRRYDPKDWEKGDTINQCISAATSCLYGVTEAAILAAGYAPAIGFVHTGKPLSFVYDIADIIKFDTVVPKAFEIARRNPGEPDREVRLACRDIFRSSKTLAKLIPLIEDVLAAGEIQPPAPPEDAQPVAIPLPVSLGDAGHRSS

[2] = biological target: DnaK S427P (Escherichia coli (K-12 MG1655), UniProt P0A6Y8 1-638, S427P); test: EMSA; EMSA: 20 nM Cy5 fork, 20 mM Tris pH 8.0, 0.1 mg/ml BSA, 7% glycerol (25% after DnaK addition); proteins diluted in 20 mM Tris pH 8.0, 100 mM NaCl, 1 mM DTT; Cas1 preincubated 5 min, then 25 min at 37 C; 5% native acrylamide gel; settings: protein: recombinant; tags: N-terminal 6xHis; label: 5'-Cy5 on MW14; fork: 24 bp duplex 1:2-25 2:27-50; 3' arm of strand 1 25 nt, 5' arm of strand 2 26 nt; 1 nt 5' overhang on strand 1
[3] = biological target: DnaK (Escherichia coli (K-12 MG1655), UniProt P0A6Y8 1-638); test: EMSA; mixed with Cy5-ssDNA; EMSA: 20 nM Cy5 fork, 20 mM Tris pH 8.0, 0.1 mg/ml BSA, 7% glycerol (25% after DnaK addition); proteins diluted in 20 mM Tris pH 8.0, 100 mM NaCl, 1 mM DTT; Cas1 preincubated 5 min, then 25 min at 37 C; 5% native acrylamide gel; settings: protein: recombinant; tags: N-terminal 6xHis; label: 5'-Cy5 on MW14; fork: 24 bp duplex 1:2-25 2:27-50; 3' arm of strand 1 25 nt, 5' arm of strand 2 26 nt; 1 nt 5' overhang on strand 1

B1: Fork (flayed duplex MW12/MW14) (dsDNA)
DNA 1: GTCGGATCCTCTAGACAGCTCCATGATCACTGGCACTGGTAGAATTCGGC
DNA 2: CAACGTCATAGACGATTACATTGCTACATGGAGCTGTCTAGAGGATCCGA
[1]
  binding result: binds
[2]
  binding result: no binding
[3]
  binding result: no binding
